Experimental findings from paper PMC4596688 (2015) are described below.

In assay [1] the target is T1, Full-length human CRM1 (HsCRM1) (human, UniProt O14980 1-1071). As to the kind of experiment: MST; direct titration, right panel.
For assay [2], the target named is T1, Full-length human CRM1 (HsCRM1). As to the kind of experiment: MST; direct titration, left panel.
The target is the same in assay [3]. As to the kind of experiment: MST; direct titration, middle panel.
Assay [4] shares this target. As to the kind of experiment: MST; competition with FITC-PKI^NES.

A word on the Kd: it is the equilibrium constant for the complex coming apart. Low values mean tighter binding, high ones weaker binding.

Ends that are not written are not given here. * marks the point of attachment. FITC = O=C1OC2(c3ccc(O)cc3Oc3cc(O)ccc32)c2ccc(NC(=S)*)cc21

T1 sequence (O14980 whole entry): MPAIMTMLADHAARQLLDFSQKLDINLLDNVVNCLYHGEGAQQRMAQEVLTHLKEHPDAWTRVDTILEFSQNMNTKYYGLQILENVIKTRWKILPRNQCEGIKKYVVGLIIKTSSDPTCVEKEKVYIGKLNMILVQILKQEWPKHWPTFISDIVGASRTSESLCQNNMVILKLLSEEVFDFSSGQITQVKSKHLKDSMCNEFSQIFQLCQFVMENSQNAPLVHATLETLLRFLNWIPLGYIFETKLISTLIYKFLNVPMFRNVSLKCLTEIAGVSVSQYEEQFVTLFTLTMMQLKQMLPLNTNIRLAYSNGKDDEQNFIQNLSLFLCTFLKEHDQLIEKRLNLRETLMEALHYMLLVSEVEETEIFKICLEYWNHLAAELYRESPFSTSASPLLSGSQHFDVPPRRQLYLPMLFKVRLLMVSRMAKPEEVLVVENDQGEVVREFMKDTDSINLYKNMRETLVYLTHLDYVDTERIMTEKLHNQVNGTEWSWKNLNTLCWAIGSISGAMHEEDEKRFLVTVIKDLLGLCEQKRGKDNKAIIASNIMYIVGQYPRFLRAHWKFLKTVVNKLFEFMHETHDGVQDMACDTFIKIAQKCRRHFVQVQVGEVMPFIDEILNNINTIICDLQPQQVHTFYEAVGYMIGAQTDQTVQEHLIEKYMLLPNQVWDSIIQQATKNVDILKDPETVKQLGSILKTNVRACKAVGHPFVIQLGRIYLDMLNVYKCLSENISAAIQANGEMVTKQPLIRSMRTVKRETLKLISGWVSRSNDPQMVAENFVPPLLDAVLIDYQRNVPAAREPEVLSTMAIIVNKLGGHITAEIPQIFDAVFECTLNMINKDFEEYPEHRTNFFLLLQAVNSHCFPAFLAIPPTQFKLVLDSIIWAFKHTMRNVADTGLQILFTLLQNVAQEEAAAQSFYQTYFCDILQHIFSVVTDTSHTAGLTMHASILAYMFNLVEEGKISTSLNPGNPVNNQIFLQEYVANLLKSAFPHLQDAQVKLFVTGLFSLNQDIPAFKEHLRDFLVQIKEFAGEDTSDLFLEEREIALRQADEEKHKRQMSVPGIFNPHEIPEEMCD

Turning to {FITC}-SGNSNELALKLAGLDINKT [FITC-PKI^NES peptide (FITC-SGNSNELALKLAGLDINKT)], the Kd was determined as 0.044 µM in assay [1], 0.037 µM in assay [2] and 0.03 µM in assay [3]. As to MEELSQALASSFSVSQ [MBP-SNUPN^NES], the affinity in assay [4], expressed as Kd, was 12 µM.

SNELALKLAGLDI [MBP-PKI^NES] yielded a Kd in assay [4] of 0.036 µM. Against the preceding molecule, the Kd is about 330-fold lower.
